B3: Nup192(2-960) (domain or fragment, S. cerevisiae, UniProt P47054 2-960, looked up)
chain: KWSAIPFQTLYRSIESGEFDFDLFKEVLPDLQNLNLNTDKLKNNASRSQLEKGEIELSDGSTFKVNQEFIFEAISLSDELNLDEIVACELILSGDTTANNGKVQYFLRRQYILQIVSFIVNCFHEDTELYQELIKNGALVSNILSAFKFIHTQLSEIKQQINKAQILENYNALFQQNIKFRRDFLLREYDILSQILYGLVDKGAIMKNKDFILSLLHHVSELDSNDFFIIYYTPAFFHLFASLRVLPDADVKLLHSQFMKDLKDDSIYTKPVKVALIFIFFAYFIGWCKEDPKRRADTMDFKTDVDEPMTSAVELGAIEQILIFAADTSIVEQDKSMELFYDIRSLLERHIPRLIPKQLLDDEKIFSQTTNSTYNPASATDNMSGRGLWNPSYPGMMSTTGTARLNSMPNNVNEYSYTTIVLSDQTQEFFLSSFDDVLQTIITDCAFLLTKIKDAEEDSLLSGEDLTLDDISLKADLERFFLSIYFFYASRPEYSCTFWSDKESNAYGFIEWCSRCNDNLMRSCFYLMVSSLSFGPENALNVYHYFGENSSISWKNIAQCLSDYTKKISNFNSSLHKRQQFSESTHNDIDSTAVALEEGLNEEAVIFLSSLLTLVGSVTYQVDEDVKSSLSKVFSDVLFEFTKINTPLVGAAFKVISNLVPKLESSRTKFWSFLDSLIFKDSSLNYSSESYRNAFTNVLTKYSDVLGFLQLFHNLISIHSRENNSEYMVFGKLAFPTRLGQGYRKVGIWPYFDYIFNDILAHVDQIVDIRNKRAVQLPILKIIYTGLCSFDYSVILNSIPAAANLDALVDCENFFNYVQECPAIPIFNYIFTEKIYKSIFNVVDVGVDQLSIELEGGKNQAELLQLAVKIINKVLDYQETYVEELFPIVKKHGKTDYFLPKNYSLHGLRSFYDAIFFNIPLVAHLGLYVGVDDQILATNSLRILAKLSERSNGSVASLS

Columns and labels:
[1] = molecular target: Nup84-Nup133(521-1157) complex (S. cerevisiae, UniProt P52891 1-726; P36161 521-1157); test: pull-down
Nup84-Nup133(521-1157) complex, sequence (P52891 whole entry, chain 1 of 2): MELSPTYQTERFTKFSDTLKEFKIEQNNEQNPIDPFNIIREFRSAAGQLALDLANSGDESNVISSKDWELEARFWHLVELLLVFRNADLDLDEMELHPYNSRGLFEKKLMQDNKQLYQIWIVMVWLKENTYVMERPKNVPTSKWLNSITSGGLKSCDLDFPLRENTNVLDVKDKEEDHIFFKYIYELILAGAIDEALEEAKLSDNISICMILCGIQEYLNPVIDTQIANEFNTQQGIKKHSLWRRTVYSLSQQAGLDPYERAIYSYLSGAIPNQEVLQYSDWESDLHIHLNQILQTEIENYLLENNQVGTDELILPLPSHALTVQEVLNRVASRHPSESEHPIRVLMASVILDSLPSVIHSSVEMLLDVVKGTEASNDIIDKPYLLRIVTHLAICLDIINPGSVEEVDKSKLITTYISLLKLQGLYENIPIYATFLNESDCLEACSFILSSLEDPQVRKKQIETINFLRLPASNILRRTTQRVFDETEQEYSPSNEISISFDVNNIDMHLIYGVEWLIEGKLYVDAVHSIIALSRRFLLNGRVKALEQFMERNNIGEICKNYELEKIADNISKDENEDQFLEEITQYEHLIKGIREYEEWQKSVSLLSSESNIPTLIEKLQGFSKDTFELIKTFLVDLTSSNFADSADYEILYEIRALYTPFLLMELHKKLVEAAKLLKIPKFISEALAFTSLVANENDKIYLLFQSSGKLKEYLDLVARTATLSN
Nup84-Nup133(521-1157) complex, sequence (P36161 521-1157, chain 2 of 2): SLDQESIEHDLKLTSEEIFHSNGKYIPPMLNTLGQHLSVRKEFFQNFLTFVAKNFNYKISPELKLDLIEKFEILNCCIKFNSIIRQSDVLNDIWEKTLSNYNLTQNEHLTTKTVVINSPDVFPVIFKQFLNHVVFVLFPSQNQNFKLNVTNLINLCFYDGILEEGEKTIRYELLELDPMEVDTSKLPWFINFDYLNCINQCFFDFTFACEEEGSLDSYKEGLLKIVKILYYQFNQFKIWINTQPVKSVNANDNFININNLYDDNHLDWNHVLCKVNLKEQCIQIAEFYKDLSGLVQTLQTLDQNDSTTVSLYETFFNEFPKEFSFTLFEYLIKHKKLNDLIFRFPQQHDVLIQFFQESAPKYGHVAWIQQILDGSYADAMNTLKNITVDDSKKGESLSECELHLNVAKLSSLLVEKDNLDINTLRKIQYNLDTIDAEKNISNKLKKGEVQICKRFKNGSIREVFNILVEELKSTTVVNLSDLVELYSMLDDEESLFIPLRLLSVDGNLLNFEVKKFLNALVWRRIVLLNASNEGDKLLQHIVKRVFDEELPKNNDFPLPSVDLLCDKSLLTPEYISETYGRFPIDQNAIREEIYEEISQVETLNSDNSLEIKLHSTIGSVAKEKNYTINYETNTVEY

His6-Avitag-MBP-Nup116 = His6-Avitag-MBP-Nup116 (S. cerevisiae, UniProt Q02630 1-1113, biotin on the Avitag); test: BLI
Nup192(2-960) = molecular target: B3; test: BLI

B1: GST-Nup100(1-307) (domain or fragment, S. cerevisiae, UniProt Q02629 1-307, looked up)
chain: MFGNNRPMFGGSNLSFGSNTSSFGGQQSQQPNSLFGNSNNNNNSTSNNAQSGFGGFTSAAGSNSNSLFGNNNTQNNGAFGQSMGATQNSPFGSLNSSNASNGNTFGGSSSMGSFGGNTNNAFNNNSNSTNSPFGFNKPNTGGTLFGSQNNNSAGTSSLFGGQSTSTTGTFGNTGSSFGTGLNGNGSNIFGAGNNSQSNTTGSLFGNQQSSAFGTNNQQGSLFGQQSQNTNNAFGNQNQLGGSSFGSKPVGSGSLFGQSNNTLGNTTNNRNGLFGQMNSSNQGSSNSGLFGQNSMNSSTQGVFGQNNN
Does B1 bind [1]?
Result: binds

B2: ScKap95 (natural protein, S. cerevisiae, UniProt Q06142 1-861, looked up)
chain: MSTAEFAQLLENSILSPDQNIRLTSETQLKKLSNDNFLQFAGLSSQVLIDENTKLEGRILAALTLKNELVSKDSVKTQQFAQRWITQVSPEAKNQIKTNALTALVSIEPRIANAAAQLIAAIADIELPHGAWPELMKIMVDNTGAEQPENVKRASLLALGYMCESADPQSQALVSSSNNILIAIVQGAQSTETSKAVRLAALNALADSLIFIKNNMEREGERNYLMQVVCEATQAEDIEVQAAAFGCLCKIMSLYYTFMKPYMEQALYALTIATMKSPNDKVASMTVEFWSTICEEEIDIAYELAQFPQSPLQSYNFALSSIKDVVPNLLNLLTRQNEDPEDDDWNVSMSAGACLQLFAQNCGNHILEPVLEFVEQNITADNWRNREAAVMAFGSIMDGPDKVQRTYYVHQALPSILNLMNDQSLQVKETTAWCIGRIADSVAESIDPQQHLPGVVQACLIGLQDHPKVATNCSWTIINLVEQLAEATPSPIYNFYPALVDGLIGAANRIDNEFNARASAFSALTTMVEYATDTVAETSASISTFVMDKLGQTMSVDENQLTLEDAQSLQELQSNILTVLAAVIRKSPSSVEPVADMLMGLFFRLLEKKDSAFIEDDVFYAISALAASLGKGFEKYLETFSPYLLKALNQVDSPVSITAVGFIADISNSLEEDFRRYSDAMMNVLAQMISNPNARRELKPAVLSVFGDIASNIGADFIPYLNDIMALCVAAQNTKPENGTLEALDYQIKVLEAVLDAYVGIVAGLHDKPEALFPYVGTIFQFIAQVAEDPQLYSEDATSRAAVGLIGDIAAMFPDGSIKQFYGQDWVIDYIKRTRSGQLFSQATKDTARWAREQQKRQLSL
Does B2 bind (His6-Avitag-MBP-Nup116)?
Result: binds

For B3, which “KD of the dominant of the two binding modes” value (His6-Avitag-MBP-Nup116) is on record?
Its value is 500 nM.

What about the “fold lower KD than with the Nup116 variant lacking the GLFG-repeats” value (His6-Avitag-MBP-Nup116) of the same binder?
Its value is ~15 fold.

B4: GST-Nup116(348-458) (domain or fragment, S. cerevisiae, UniProt Q02630 348-458, looked up)
chain: GALFGAKPASGGLFGQSAGSKAFGMNTNPTGTTGGLFGQTNQQQSGGGLFGQQQNSNAGGLFGQNNQSQNQSGLFGQQNSSNAFGQPQQQGGLFGSKPAGGLFGQQQGAST
Does B4 bind [1]?
Result: binds

B5: His6-Avitag-MBP-Nup116(718-1113) (domain or fragment, S. cerevisiae, UniProt Q02630 718-1113, looked up)
chain: SQSMAQSQNALQQQQQQQRLQIQNNNPYGTNELFSKATVTNTVSYPIQPSATKIKADERKKASLTNAYKMIPKTLFTAKLKTNNSVMDKAQIKVDPKLSISIDKKNNQIAISNQQEENLDESILKASELLFNPDKRSFKNLINNRKMLIASEEKNNGSQNNDMNFKSKSEEQETILGKPKMDEKETANGGERMVLSSKNDGEDSATKHHSRNMDEENKENVADLQKQEYSEDDKKAVFADVAEKDASFINENYYISPSLDTLSSYSLLQLRKVPHLVVGHKSYGKIEFLEPVDLAGIPLTSLGGVIITFEPKTCIIYANLPNRPKRGEGINVRARITCFNCYPVDKSTRKPIKDPNHQLVKRHIERLKKNPNSKFESYDADSGTYVFIVNHAAEQT
modifications: biotin on the Avitag
Does B5 bind (Nup192(2-960))?
Result: binds

B6: GST-Nup100(1-610) (domain or fragment, S. cerevisiae, UniProt Q02629 1-610, looked up)
chain: MFGNNRPMFGGSNLSFGSNTSSFGGQQSQQPNSLFGNSNNNNNSTSNNAQSGFGGFTSAAGSNSNSLFGNNNTQNNGAFGQSMGATQNSPFGSLNSSNASNGNTFGGSSSMGSFGGNTNNAFNNNSNSTNSPFGFNKPNTGGTLFGSQNNNSAGTSSLFGGQSTSTTGTFGNTGSSFGTGLNGNGSNIFGAGNNSQSNTTGSLFGNQQSSAFGTNNQQGSLFGQQSQNTNNAFGNQNQLGGSSFGSKPVGSGSLFGQSNNTLGNTTNNRNGLFGQMNSSNQGSSNSGLFGQNSMNSSTQGVFGQNNNQMQINGNNNNSLFGKANTFSNSASGGLFGQNNQQQGSGLFGQNSQTSGSSGLFGQNNQKQPNTFTQSNTGIGLFGQNNNQQQQSTGLFGAKPAGTTGSLFGGNSSTQPNSLFGTTNVPTSNTQSQQGNSLFGATKLTNMPFGGNPTANQSGSGNSLFGTKPASTTGSLFGNNTASTTVPSTNGLFGNNANNSTSTTNTGLFGAKPDSQSKPALGGGLFGNSNSNSSTIGQNKPVFGGTTQNTGLFGATGTNSSAVGSTGKLFGQNNNTLNVGTQNVPPVNNTTQNALLGTTAVPSLQQAPVTN
Does B6 bind [1]?
Result: binds

B7: Nup170(980-1502) (domain or fragment, S. cerevisiae, UniProt P38181 980-1502, looked up)
chain: SIEYTATALQERCGSFCSASDILGFRAIEHLRRAKEIGLRNYDSLNYHLKNATALLEQIVDDLSIEKLKEAVSMMLSVNYYPKSIEFLLNIANSMDKGKLACQYVANGFLENDDRKQYYDKRILVYDLVFDTLIKVDELAEKKQSSKTQNQISISNDDEVKLRQKSYEAALKYNDRLFHYHMYDWLVSQNREEKLLDIETPFILPYLMEKAGSSLKISNILWVYYSRRSKFFESAEILYRLATSNFDITLFERIEFLSRANGFCNSVSPLSQKQRIVQLASRIQDACEVAGIQGDILSLVYTDARIDSAIKDELIKTLDGKILSTSELFNDFAVPLSYHEIALFIFKIADFRDHEVIMAKWDELFQSLRMEFNNTGKKEDSMNFINLLSNVLIKIGKNVQDSEFIFPIFELFPIVCNFFYETLPKEHIVSGSIVSIFITAGVSFNKMYYILKELIETSDSDNSVFNKEMTWLIHEWYKSDRKFRDIISYNDIIHLKEYKIDNDPIEKYVKNSGNNLGICFYKE
Does B7 bind (His6-Avitag-MBP-Nup116)?
Result: binds

Source: article PMC5992322 (Cell, 2017)
